Experiments:
Assay in all cases: holdup assay
Design in all cases: key: below the threshold = too weak to quantify, mostly under pKd 3.1 to 4
SNTB1, Q13884 = molecular target: T1, SNTB1, Q13884
T1 sequence (Q13884 107-205, limits assumed, looked up): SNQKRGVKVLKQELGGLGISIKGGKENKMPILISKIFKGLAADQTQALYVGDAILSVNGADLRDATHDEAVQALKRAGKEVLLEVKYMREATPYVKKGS

LRRC7, Q96NW7 = molecular target: T2, LRRC7, Q96NW7
T2 sequence (Q96NW7 1440-1537, limits assumed, looked up): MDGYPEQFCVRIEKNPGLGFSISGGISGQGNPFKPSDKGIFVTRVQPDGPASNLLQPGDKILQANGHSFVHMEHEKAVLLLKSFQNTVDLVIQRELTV

ARHGAP21, Q5T5U3 = molecular target: T3, ARHGAP21, Q5T5U3
T3 sequence (Q5T5U3 45-169, limits assumed, looked up): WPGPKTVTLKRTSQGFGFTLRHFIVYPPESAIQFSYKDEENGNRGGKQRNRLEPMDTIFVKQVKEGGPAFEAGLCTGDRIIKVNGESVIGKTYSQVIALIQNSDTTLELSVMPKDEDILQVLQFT

FRMPD1, Q5SYB0 = molecular target: T4, FRMPD1, Q5SYB0
T4 sequence (Q5SYB0 52-145, limits assumed, looked up): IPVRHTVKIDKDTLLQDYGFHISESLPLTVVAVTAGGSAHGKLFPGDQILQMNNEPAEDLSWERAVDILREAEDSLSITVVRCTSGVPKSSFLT

PDZRN3_1, Q9UPQ7 = molecular target: T5, PDZRN3_1, Q9UPQ7
T5 sequence (Q9UPQ7 244-349, limits assumed, looked up): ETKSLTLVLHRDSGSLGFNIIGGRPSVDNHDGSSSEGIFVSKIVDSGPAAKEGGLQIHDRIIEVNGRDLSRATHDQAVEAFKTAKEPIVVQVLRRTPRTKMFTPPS

MPDZ_10, O75970 = molecular target: T6, MPDZ_10, O75970
T6 sequence (O75970 1624-1722, limits assumed, looked up): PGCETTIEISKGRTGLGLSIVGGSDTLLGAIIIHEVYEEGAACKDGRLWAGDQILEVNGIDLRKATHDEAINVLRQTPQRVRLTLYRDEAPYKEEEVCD

MPP7, Q5T2T1 = molecular target: T7, MPP7, Q5T2T1
T7 sequence (Q5T2T1 134-230, limits assumed, looked up): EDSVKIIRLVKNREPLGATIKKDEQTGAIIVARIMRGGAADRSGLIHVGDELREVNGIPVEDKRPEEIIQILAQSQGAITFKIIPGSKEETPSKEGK

Inadl_4, Q8NI35 = molecular target: Inadl_4, Q8NI35
SCRIB_3, Q14160 = molecular target: SCRIB_3, Q14160
Inadl_3, Q8NI35 = molecular target: Inadl_3, Q8NI35
DFNB31_2, Q9P202 = molecular target: T8, DFNB31_2, Q9P202
T8 sequence (Q9P202 274-371, limits assumed, looked up): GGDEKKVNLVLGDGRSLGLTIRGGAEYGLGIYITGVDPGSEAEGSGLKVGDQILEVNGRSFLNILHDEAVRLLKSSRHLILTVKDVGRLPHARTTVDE

DLG4_1, P78352 = molecular target: DLG4_1, P78352
FRMPD2_2, Q68DX3 = molecular target: FRMPD2_2, Q68DX3
Inadl_1, Q8NI35 = molecular target: Inadl_1, Q8NI35
MPDZ_5, O75970 = molecular target: T9, MPDZ_5, O75970
T9 sequence (O75970 695-796, limits assumed, looked up): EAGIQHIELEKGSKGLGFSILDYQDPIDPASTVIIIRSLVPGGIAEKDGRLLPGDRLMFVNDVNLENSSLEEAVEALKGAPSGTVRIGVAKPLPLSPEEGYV

NHERF4_1, Q86UT5-2 = molecular target: NHERF4_1, Q86UT5-2
HTRA3, P83110 = molecular target: T10, HTRA3, P83110
T10 sequence (P83110 354-453, limits assumed, looked up): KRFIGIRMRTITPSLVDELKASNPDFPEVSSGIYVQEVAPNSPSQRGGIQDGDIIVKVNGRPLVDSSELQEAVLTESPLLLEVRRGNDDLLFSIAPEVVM

GORASP2, Q9H8Y8 = molecular target: GORASP2, Q9H8Y8
NHERF4_4, Q86UT5 = molecular target: NHERF4_4, Q86UT5
SCRIB_1, Q14160 = molecular target: SCRIB_1, Q14160
GORASP1, Q9BQQ3 = molecular target: GORASP1, Q9BQQ3
GRIP2_6, Q9C0E4 = molecular target: GRIP2_6, Q9C0E4
DLG2_3, Q15700 = molecular target: DLG2_3, Q15700
PDLIM1, O00151 = molecular target: PDLIM1, O00151
IL16_1, Q14005 = molecular target: IL16_1, Q14005
TJP1_2, Q07157 = molecular target: TJP1_2, Q07157
RHPN1, Q8TCX5 = molecular target: T11, RHPN1, Q8TCX5
T11 sequence (Q8TCX5 508-602, limits assumed, looked up): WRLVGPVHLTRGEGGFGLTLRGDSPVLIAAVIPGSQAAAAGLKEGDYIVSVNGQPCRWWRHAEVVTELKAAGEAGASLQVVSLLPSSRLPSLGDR

[1] = plain residues with an end cap or a label only (N-terminal biotin on a linker: ado-ado)
[2] = modified: phospho on T at position -2 from the C-terminal residue

IL16_1, Q14005, sequence (Q14005 210-306): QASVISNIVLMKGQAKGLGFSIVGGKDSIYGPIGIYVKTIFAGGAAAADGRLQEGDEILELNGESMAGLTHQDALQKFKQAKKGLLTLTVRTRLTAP
SCRIB_3, Q14160, sequence (Q14160 999-1103): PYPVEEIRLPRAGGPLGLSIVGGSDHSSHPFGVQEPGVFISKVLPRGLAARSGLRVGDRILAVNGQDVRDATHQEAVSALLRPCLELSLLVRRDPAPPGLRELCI
Inadl_3, Q8NI35, sequence (Q8NI35 359-469): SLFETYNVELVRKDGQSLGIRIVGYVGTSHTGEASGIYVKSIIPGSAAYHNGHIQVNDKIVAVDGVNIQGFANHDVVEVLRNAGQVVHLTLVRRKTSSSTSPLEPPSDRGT
SCRIB_1, Q14160, sequence (Q14160 718-814): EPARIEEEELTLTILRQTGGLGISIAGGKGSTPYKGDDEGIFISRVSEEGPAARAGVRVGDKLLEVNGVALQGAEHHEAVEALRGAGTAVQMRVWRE
GRIP2_6, Q9C0E4, sequence (Q9C0E4 648-740): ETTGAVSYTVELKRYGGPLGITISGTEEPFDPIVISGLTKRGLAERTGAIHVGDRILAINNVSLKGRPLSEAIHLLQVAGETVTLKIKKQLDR
Inadl_1, Q8NI35, sequence (Q8NI35 113-229): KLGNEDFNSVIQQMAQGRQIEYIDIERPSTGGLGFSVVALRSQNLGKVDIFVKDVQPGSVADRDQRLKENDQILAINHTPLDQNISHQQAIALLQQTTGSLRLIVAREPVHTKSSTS
NHERF4_4, Q86UT5, sequence (Q86UT5 464-550): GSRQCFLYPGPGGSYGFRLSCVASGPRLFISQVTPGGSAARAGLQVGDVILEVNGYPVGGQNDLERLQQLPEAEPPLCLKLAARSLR
NHERF4_1, Q86UT5-2, sequence (Q86UT5 other isoform, or with tags, fused parts or gaps): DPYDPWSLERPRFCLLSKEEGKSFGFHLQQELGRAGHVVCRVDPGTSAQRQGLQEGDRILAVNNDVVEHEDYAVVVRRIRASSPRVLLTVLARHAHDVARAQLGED
PDLIM1, O00151, sequence (O00151 1-87): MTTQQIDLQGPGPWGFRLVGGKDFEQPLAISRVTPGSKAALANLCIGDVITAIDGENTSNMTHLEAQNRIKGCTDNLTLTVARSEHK
TJP1_2, Q07157, sequence (Q07157 181-274): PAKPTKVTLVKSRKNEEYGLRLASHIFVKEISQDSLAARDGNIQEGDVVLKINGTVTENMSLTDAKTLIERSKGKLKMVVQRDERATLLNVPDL
DLG4_1, P78352, sequence (P78352 62-152): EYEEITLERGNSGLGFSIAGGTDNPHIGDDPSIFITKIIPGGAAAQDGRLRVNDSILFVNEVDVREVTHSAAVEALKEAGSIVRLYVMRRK
GORASP1, Q9BQQ3, sequence (Q9BQQ3 1-208): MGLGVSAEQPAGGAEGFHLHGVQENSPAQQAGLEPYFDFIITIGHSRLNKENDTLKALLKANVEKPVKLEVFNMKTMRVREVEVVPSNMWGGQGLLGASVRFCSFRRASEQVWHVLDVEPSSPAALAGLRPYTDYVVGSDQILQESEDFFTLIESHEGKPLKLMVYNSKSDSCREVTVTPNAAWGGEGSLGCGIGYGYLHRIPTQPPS
Inadl_4, Q8NI35, sequence (Q8NI35 547-651): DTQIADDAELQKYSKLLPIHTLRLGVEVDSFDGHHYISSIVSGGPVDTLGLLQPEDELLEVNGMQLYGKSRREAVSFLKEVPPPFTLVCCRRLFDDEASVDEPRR
FRMPD2_2, Q68DX3, sequence (Q68DX3 944-1038): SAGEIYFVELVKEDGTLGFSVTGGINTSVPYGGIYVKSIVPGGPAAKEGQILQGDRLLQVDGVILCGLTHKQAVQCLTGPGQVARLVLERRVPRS

**Q.** DYSNLRETDI [ADRA1D, P25100] was tested. Which pKd (SNTB1, Q13884; [1]) did it give?
**A.** The pKd was 5.57.

**Q.** What about the pKd (LRRC7, Q96NW7; [1]) of the same binder?
**A.** Its pKd is 3.48.

**Q.** And the pKd (ARHGAP21, Q5T5U3; [1])?
**A.** The pKd was 3.98.

**Q.** What about the pKd (FRMPD1, Q5SYB0; [1]) of the same binder?
**A.** Its pKd is “below the threshold”.

**Q.** What about the pKd (PDZRN3_1, Q9UPQ7; [1]) of the same binder?
**A.** Its pKd is 3.69.

**Q.** What about the pKd (MPDZ_10, O75970; [1]) of the same binder?
**A.** Its pKd is “below the threshold”.

**Q.** What about the pKd (MPP7, Q5T2T1; [1]) of the same binder?
**A.** Its pKd is “below the threshold”.

**Q.** And the pKd (Inadl_4, Q8NI35; [1])?
**A.** Its pKd is “below the threshold”.

**Q.** And the pKd (SCRIB_3, Q14160; [1])?
**A.** The pKd was 5.27.

**Q.** And the pKd (Inadl_3, Q8NI35; [1])?
**A.** Its pKd is 3.84.

**Q.** And the pKd (DFNB31_2, Q9P202; [1])?
**A.** The pKd was “below the threshold”.

**Q.** What about the pKd (DLG4_1, P78352; [1]) of the same binder?
**A.** The pKd was 3.89.

**Q.** And the pKd (FRMPD2_2, Q68DX3; [1])?
**A.** Its pKd is “below the threshold”.

**Q.** What about the pKd (Inadl_1, Q8NI35; [1]) of the same binder?
**A.** Its pKd is “below the threshold”.

**Q.** And the pKd (MPDZ_5, O75970; [1])?
**A.** Its pKd is “below the threshold”.

**Q.** What about the pKd (NHERF4_1, Q86UT5-2; [1]) of the same binder?
**A.** Its pKd is “below the threshold”.

**Q.** What about the pKd (HTRA3, P83110; [1]) of the same binder?
**A.** Its pKd is “below the threshold”.

**Q.** What about the pKd (GORASP2, Q9H8Y8; [1]) of the same binder?
**A.** The pKd was “below the threshold”.

**Q.** What about the pKd (NHERF4_4, Q86UT5; [1]) of the same binder?
**A.** Its pKd is “below the threshold”.

**Q.** What about the pKd (SCRIB_1, Q14160; [1]) of the same binder?
**A.** Its pKd is 4.95.

**Q.** What about the pKd (GORASP1, Q9BQQ3; [1]) of the same binder?
**A.** Its pKd is “below the threshold”.

**Q.** And the pKd (GRIP2_6, Q9C0E4; [1])?
**A.** The pKd was “below the threshold”.

**Q.** And the pKd (DLG2_3, Q15700; [1])?
**A.** Its pKd is “below the threshold”.

**Q.** And the pKd (PDLIM1, O00151; [1])?
**A.** Its pKd is “below the threshold”.

**Q.** What about the pKd (IL16_1, Q14005; [1]) of the same binder?
**A.** Its pKd is 3.59.

**Q.** What about the pKd (TJP1_2, Q07157; [1]) of the same binder?
**A.** The pKd was “below the threshold”.

**Q.** And the pKd (RHPN1, Q8TCX5; [1])?
**A.** Its pKd is 4.35.

**Q.** With SRSRRRETAL [HPV33-E6_-2P, P06427] as the binder, how does the pKd (SNTB1, Q13884; [2]) read?
**A.** Its pKd is “below the threshold”.

**Q.** What about the pKd (LRRC7, Q96NW7; [2]) of the same binder?
**A.** The pKd was “below the threshold”.

**Q.** What about the pKd (ARHGAP21, Q5T5U3; [2]) of the same binder?
**A.** Its pKd is 4.02.

**Q.** And the pKd (FRMPD1, Q5SYB0; [2])?
**A.** Its pKd is “below the threshold”.

**Q.** What about the pKd (PDZRN3_1, Q9UPQ7; [2]) of the same binder?
**A.** Its pKd is “below the threshold”.

**Q.** What about the pKd (MPDZ_10, O75970; [2]) of the same binder?
**A.** The pKd was “below the threshold”.

**Q.** What about the pKd (MPP7, Q5T2T1; [2]) of the same binder?
**A.** The pKd was “below the threshold”.

**Q.** And the pKd (Inadl_4, Q8NI35; [2])?
**A.** Its pKd is “below the threshold”.

**Q.** And the pKd (SCRIB_3, Q14160; [2])?
**A.** Its pKd is “below the threshold”.

**Q.** And the pKd (Inadl_3, Q8NI35; [2])?
**A.** The pKd was “below the threshold”.

**Q.** And the pKd (DFNB31_2, Q9P202; [2])?
**A.** The pKd was “below the threshold”.

**Q.** And the pKd (DLG4_1, P78352; [2])?
**A.** The pKd was “below the threshold”.

**Q.** What about the pKd (FRMPD2_2, Q68DX3; [2]) of the same binder?
**A.** Its pKd is “below the threshold”.

**Q.** And the pKd (Inadl_1, Q8NI35; [2])?
**A.** The pKd was “below the threshold”.

**Q.** And the pKd (MPDZ_5, O75970; [2])?
**A.** Its pKd is “below the threshold”.

**Q.** And the pKd (NHERF4_1, Q86UT5-2; [2])?
**A.** The pKd was 4.6.

**Q.** And the pKd (HTRA3, P83110; [2])?
**A.** Its pKd is “below the threshold”.

**Q.** What about the pKd (GORASP2, Q9H8Y8; [2]) of the same binder?
**A.** The pKd was “below the threshold”.

**Q.** What about the pKd (NHERF4_4, Q86UT5; [2]) of the same binder?
**A.** The pKd was “below the threshold”.

**Q.** What about the pKd (SCRIB_1, Q14160; [2]) of the same binder?
**A.** The pKd was “below the threshold”.

**Q.** What about the pKd (GORASP1, Q9BQQ3; [2]) of the same binder?
**A.** The pKd was “below the threshold”.

**Q.** What about the pKd (GRIP2_6, Q9C0E4; [2]) of the same binder?
**A.** Its pKd is “below the threshold”.

**Q.** And the pKd (DLG2_3, Q15700; [2])?
**A.** The pKd was “below the threshold”.

**Q.** And the pKd (PDLIM1, O00151; [2])?
**A.** The pKd was “below the threshold”.

**Q.** What about the pKd (IL16_1, Q14005; [2]) of the same binder?
**A.** The pKd was “below the threshold”.

**Q.** What about the pKd (TJP1_2, Q07157; [2]) of the same binder?
**A.** The pKd was “below the threshold”.

**Q.** And the pKd (RHPN1, Q8TCX5; [2])?
**A.** The pKd was “below the threshold”.
